Test results published in US10442836B2, “1-(chloromethyl)-2,3-dihydro-1H-benzo[E]indole dimer antibody-drug conjugate compounds, and methods of use and treatment” (priority 2013, dated 2019).

B1: ADC 125: Thio Hu Anti-CD33 15G15.33 HC A118C-MC-MMED-(CBI dimer phos); linker-CBI intermediate 57 (conjugate)
VH: QVQLVQSGAEVKKPGSSVKVSCKASGGIFSNHAISWVRQAPGQGLEWMGGIIPIFGTANYAQKFQGRVTITADESTSTAFMELSSLRSEDTAVYYCAREWADVFDIWGQGTMVTVSS
VL: EIVLTQSPLSLPVTPGEPASISCRSSQSLLHSNGYNYLDWYLQKPGQSPQLLIYLGVNSVSGVPDRFSGSGSGTDFTLKISRVEAEDVGVYYCMQALQTPWTFGQGTKVEIK
B2: ADC 127: Thio Hu Anti-CD33 15G15.33 HC A118C-MC-ED-(CBI dimer DVB diphos); linker-CBI intermediate 66 (conjugate)
VH: B1 VH
VL: B1 VL
B3: ADC 129: Thio Hu Anti-CD33 15G15.33 HC A118C-MC-ED-(CBI dimer DVB phos); linker-CBI intermediate 68 (conjugate)
VH: B1 VH
VL: B1 VL

tested on: EOL-1 cells; experiment: EOL-1 in vitro cell viability (CellTiter-Glo cell proliferation assay); assay type: cell-based, human; details: EOL-1 in vitro cell viability at 3 days versus concentrations (μg/ml)
Text: The CellTiter-Glo® Luminescent Cell Viability Assay is a commercially available (Promega Corp., Madison, Wis.), homogeneous assay method based on the recombinant expression of Coleoptera luciferase (U.S. Pat. Nos. 5,583,024; 5,674,713; 5,700,670). This cell proliferation assay determines the number of viable cells in culture based on quantitation of the ATP present, an indicator of metabolically active cells (Crouch et al (1993) J. Immunol. Meth. 160:81-88; U.S. Pat. No. 6,602,677). The CellTiter-Glo® Assay was conducted in 96 well format, making it amenable to automated high-throughput screening (HTS) (Cree et al (1995) AntiCancer Drugs 6:398-404). The homogeneous assay procedure involves adding the single reagent (CellTiter-Glo® Reagent) directly to cells cultured in serum-supplemented medium. Cell washing, removal of medium and multiple pipetting steps are not required. The system detects as few as 15 cells/well in a 384-well format in 10 minutes after adding reagent and mixing. The cells may be treated continuously with ADC, or they may be treated and separated from ADC.
The homogeneous “add-mix-measure” format results in cell lysis and generation of a luminescent signal proportional to the amount of ATP present. The amount of ATP is directly proportional to the number of cells present in culture. […] Viable cells are reflected in relative luminescence units (RLU). […]
Efficacy of ADC was measured by a cell proliferation assay employing the following protocol ([…] GLO™ Luminescent Cell Viability Assay, Promega Corp. Technical Bulletin TB288; Mendoza et al (2002) Cancer Res. 62:5485-5488): • 1. […] The plate was incubated at room temperature for 10 minutes to stabilize the luminescence signal. • 8. Luminescence was recorded and reported in graphs as RLU=relative luminescence units. • Data are plotted as the mean of luminescence for each set of replicates, with standard deviation error bars. […]

Row | Molecule | cell-killing activity
1 | B1 | modest dose response cell-killing activity
2 | B2 | potent, dose responsive cell-killing activity
3 | B3 | potent, dose responsive cell-killing activity

tested on: not given; experiment: not given; details: not given

Row | Molecule | melting point
4 | CN(CCN(C)C(=O)Oc1cc2c(c3ccccc13)[C@H](CCl)CN2C(=O)CCCC(=O)N1C[C@@H](CCl)c2c1cc(O)c1ccccc21)C(=O)CBr | 167 to 170 °C
5 | CN(CCN(C)C(=O)Oc1cc2c(c3ccccc13)[C@H](CCl)CN2C(=O)CCCC(=O)N1C[C@@H](CCl)c2c1cc(OP(=O)(O)O)c1ccccc21)C(=O)CCCCCN1C(=O)C=CC1=O | 191 to 194 °C (dec.)
6 | CN1CCN(C(=O)Oc2cc3c(c4ccccc24)C(CCl)CN3C(=O)/C=C/c2ccc(/C=C/C(=O)N3C[C@@H](CCl)c4c3cc(OC(=O)N3CCN(C)CC3)c3ccccc43)cc2NC(=O)CCNC(=O)CCCCCN2C(=O)C=CC2=O)CC1 (stereo partly drawn) | 268 °C (dec.)
